According to PMC10381965:
Values belong to the binder of their own block, whether it stands above or below them.

Molecular target: CENP-ΔQU complex (CENP-Q^1–294 and CENP-U^30–266) (S. cerevisiae) (UniProt P53298)
Assay: ITC; CENP-A^END peptides (0.87 to 2.18 mM) titrated into CENP-QU (66 to 180 μM) in the cell; 20°C; 20 mM Hepes pH 7.5, 100 mM NaCl, 1 mM TCEP; single-site binding model; triplicate

B1: CENP-A^END-2-R37A peptide (peptide)
peptide: Ac-AGDQQSINDAALSLLQRTRATKNW-NH2
fold reduction of affinity against the unchanged CENP-A^END peptide: 15 fold

B3: CENP-A^END-1 peptide (peptide)
peptide: Ac-DASINDRALSLLQRTRATDAW-NH2
Kd: 11500 nM

The next lines start with the values.

Kd: 1000 nM
B2: CENP-A^END-2 peptide (peptide)
peptide: Ac-AGDQQSINDRALSLLQRTRATKNW-NH2

Kd: 720 nM
B4: CENP-A^END-3 peptide (peptide)
peptide: Ac-AGDQQSINDRALSLLQRTRATKNLFPRREERRRW-NH2
